Reference: article PMC8026125 (Science Advances, 2021)

T1: Ccl1 (yeast, UniProt P37366 1-393)
T1 sequence: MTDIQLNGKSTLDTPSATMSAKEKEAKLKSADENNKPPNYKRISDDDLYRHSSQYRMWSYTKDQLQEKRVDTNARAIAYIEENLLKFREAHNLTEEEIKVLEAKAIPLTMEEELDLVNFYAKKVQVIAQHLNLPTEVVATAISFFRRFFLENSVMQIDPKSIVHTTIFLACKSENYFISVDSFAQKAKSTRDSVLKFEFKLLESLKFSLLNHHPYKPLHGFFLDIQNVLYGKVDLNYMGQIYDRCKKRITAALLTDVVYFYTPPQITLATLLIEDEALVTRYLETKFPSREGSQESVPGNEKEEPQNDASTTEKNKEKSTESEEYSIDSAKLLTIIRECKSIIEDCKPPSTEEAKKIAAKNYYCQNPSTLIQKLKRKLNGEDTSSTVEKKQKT

B1: Kin28 (enzyme)
chain: MKVNMEYTKEKKVGEGTYAVVYLGCQHSTGRKIAIKEIKTSEFKDGLDMSAIREVKYLQEMQHPNVIELIDIFMAYDNLNLVLEFLPTDLEVVIKDKSILFTPADIKAWMLMTLRGVYHCHRNFILHRDLKPNNLLFSPDGQIKVADFGLARAIPAPHEILTSNVVTRWYRAPELLFGAKHYTSAIDIWSVGVIFAELMLRIPYLPGQNDVDQMEVTFRALGTPTDRDWPEVSSFMTYNKLQIYPPPSRDELRKRFIAASEYALDFMCGMLTMNPQKRWTAVQCLESDYFKELPPPSDPSSIKIRN
modifications: phosphothreonine at 162 (pT162)
B2: Tfb3 (natural protein)
chain: MLMDEYEENKDMCPICKTDRYLSPDVKFLVNPECYHRICESCVDRIFSLGPAQCPYKGCDKILRKNKFKTQIFDDVEVEKEVDIRKRVFNVFNKTIDDFNGDLVEYNKYLEEVEDIIYKLDHGIDVAKTEEKLRTYEELNKQLIMNNLERSRTEIESFEQRQKFEKEMKLKKRLLERQIEEEERMNKEWTKKEIVNRLSTTTQDINETIEGVKNTVKLKKSSARRKLEELNRVLKNNPYFNSNVNVQNSRLKDAVPFTPFNGDREAHPRFTLKGSVYNDPFIKDLEHRKEFIASGFNTNYAYERVLTEAFMGLGCVISEEL

Experiments:
Ccl1 = target: T1, Ccl1; experiment: cryo-EM structure
Tfb3 = target: B2; experiment: cryo-EM structure

binding result (Ccl1) | binding result (Tfb3) | Binder
binds | binds | B1
binds |  | B2
